The values below come from patent EP4772193A1 (Teijin Pharma Limited, dated 2026).

The target in assay [1] is T1, recombinant human soluble gpNMB (recombinant human gpNMB-FLAG-His) (human, UniProt Q14956 23-498).
T1 sequence: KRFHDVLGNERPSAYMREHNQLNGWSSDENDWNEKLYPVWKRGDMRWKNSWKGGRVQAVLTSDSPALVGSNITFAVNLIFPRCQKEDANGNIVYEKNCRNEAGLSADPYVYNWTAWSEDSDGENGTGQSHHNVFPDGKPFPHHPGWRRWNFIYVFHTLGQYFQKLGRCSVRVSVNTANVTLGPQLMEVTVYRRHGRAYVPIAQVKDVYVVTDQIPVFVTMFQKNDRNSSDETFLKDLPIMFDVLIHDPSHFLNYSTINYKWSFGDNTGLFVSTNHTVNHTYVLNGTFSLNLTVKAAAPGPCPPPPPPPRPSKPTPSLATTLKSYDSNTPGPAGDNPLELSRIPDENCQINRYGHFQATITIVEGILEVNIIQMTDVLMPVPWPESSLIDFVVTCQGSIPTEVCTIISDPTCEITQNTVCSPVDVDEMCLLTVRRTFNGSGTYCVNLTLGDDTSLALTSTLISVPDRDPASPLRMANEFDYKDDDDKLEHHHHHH
Put plainly: antigen ELISA.

Assay [2] concerns the target T1, recombinant human soluble gpNMB …. Put plainly: antigen ELISA, vs hGPN18-2_H2L3.

B1: hGPN18-2_H2L3 VH K66A (antibody, V domains shown)
VH: QVQLVQSGPGLVQPTQTLTLTCSFSGFSLSTSVMGVGWIRQPSGKGLEWLADIWWDDDKDYNPSLASRLTISKDTSKNQVVLTMTNMDTVDTATYYCARTYYSNYEYYGMDYWGQGTLVTVSS
VL: DIVMTQSPDSLAVSLGERATINCRSSQTIILSNGNTYLEWYQQKPGQPPKLLIYKVSNRFSGVPDRFSGSGSGTDFTLTISSLQAEDVAVYYCFQGSHVPFTFGSGTKLEIKR
With B1, the EC50 in assay [1] turned out to be 4.96 nM. Moreover, the Relative binding activity in assay [2] was 0.96.

B2: hGPN18-2_H2L3 VH S67A (antibody, V domains shown)
VH: QVQLVQSGPGLVQPTQTLTLTCSFSGFSLSTSVMGVGWIRQPSGKGLEWLADIWWDDDKDYNPSLKARLTISKDTSKNQVVLTMTNMDTVDTATYYCARTYYSNYEYYGMDYWGQGTLVTVSS
VL: DIVMTQSPDSLAVSLGERATINCRSSQTIILSNGNTYLEWYQQKPGQPPKLLIYKVSNRFSGVPDRFSGSGSGTDFTLTISSLQAEDVAVYYCFQGSHVPFTFGSGTKLEIKR
As for B2, the EC50 in assay [1] amounted to 4.25 nM. The Relative binding activity in assay [2] came out at 1.01.

B3: hGPN18-2_H2L3 VH S103A (antibody, V domains shown)
VH: QVQLVQSGPGLVQPTQTLTLTCSFSGFSLSTSVMGVGWIRQPSGKGLEWLADIWWDDDKDYNPSLKSRLTISKDTSKNQVVLTMTNMDTVDTATYYCARTYYANYEYYGMDYWGQGTLVTVSS
VL: DIVMTQSPDSLAVSLGERATINCRSSQTIILSNGNTYLEWYQQKPGQPPKLLIYKVSNRFSGVPDRFSGSGSGTDFTLTISSLQAEDVAVYYCFQGSHVPFTFGSGTKLEIKR
Regarding B3, the EC50 in assay [1] came to 4.04 nM. Also, the Relative binding activity in assay [2] was found to be 0.94.

B4: hGPN18-2_H2L3 VH N104A (antibody, V domains shown)
VH: QVQLVQSGPGLVQPTQTLTLTCSFSGFSLSTSVMGVGWIRQPSGKGLEWLADIWWDDDKDYNPSLKSRLTISKDTSKNQVVLTMTNMDTVDTATYYCARTYYSAYEYYGMDYWGQGTLVTVSS
VL: DIVMTQSPDSLAVSLGERATINCRSSQTIILSNGNTYLEWYQQKPGQPPKLLIYKVSNRFSGVPDRFSGSGSGTDFTLTISSLQAEDVAVYYCFQGSHVPFTFGSGTKLEIKR
B4: in assay [1], the EC50 was 5.62 nM. For the same molecule, in assay [2], the Relative binding activity turned out to be 0.8.

B5: hGPN18-2_H2L3 VH P63A (antibody, V domains shown)
VH: QVQLVQSGPGLVQPTQTLTLTCSFSGFSLSTSVMGVGWIRQPSGKGLEWLADIWWDDDKDYNASLKSRLTISKDTSKNQVVLTMTNMDTVDTATYYCARTYYSNYEYYGMDYWGQGTLVTVSS
VL: DIVMTQSPDSLAVSLGERATINCRSSQTIILSNGNTYLEWYQQKPGQPPKLLIYKVSNRFSGVPDRFSGSGSGTDFTLTISSLQAEDVAVYYCFQGSHVPFTFGSGTKLEIKR
Regarding B5, the EC50 in assay [1] was found to be 12 nM. The Relative binding activity in assay [2] was determined as 0.43.

B6: hGPN18-2_H2L3 VH R99A (antibody, V domains shown)
VH: QVQLVQSGPGLVQPTQTLTLTCSFSGFSLSTSVMGVGWIRQPSGKGLEWLADIWWDDDKDYNPSLKSRLTISKDTSKNQVVLTMTNMDTVDTATYYCAATYYSNYEYYGMDYWGQGTLVTVSS
VL: DIVMTQSPDSLAVSLGERATINCRSSQTIILSNGNTYLEWYQQKPGQPPKLLIYKVSNRFSGVPDRFSGSGSGTDFTLTISSLQAEDVAVYYCFQGSHVPFTFGSGTKLEIKR
Regarding B6, in assay [1], the EC50 worked out at 10.6 nM. Also, the Relative binding activity in assay [2] turned out to be 0.37.

B7: hGPN18-2_H2L3 VH Y61A (antibody, V domains shown)
VH: QVQLVQSGPGLVQPTQTLTLTCSFSGFSLSTSVMGVGWIRQPSGKGLEWLADIWWDDDKDANPSLKSRLTISKDTSKNQVVLTMTNMDTVDTATYYCARTYYSNYEYYGMDYWGQGTLVTVSS
VL: DIVMTQSPDSLAVSLGERATINCRSSQTIILSNGNTYLEWYQQKPGQPPKLLIYKVSNRFSGVPDRFSGSGSGTDFTLTISSLQAEDVAVYYCFQGSHVPFTFGSGTKLEIKR
Turning to B7, the EC50 in assay [1] was 7.55 nM. In assay [2], the Relative binding activity came out at 0.7.

B8: hGPN18-2_H2L3 VH T100A (antibody, V domains shown)
VH: QVQLVQSGPGLVQPTQTLTLTCSFSGFSLSTSVMGVGWIRQPSGKGLEWLADIWWDDDKDYNPSLKSRLTISKDTSKNQVVLTMTNMDTVDTATYYCARAYYSNYEYYGMDYWGQGTLVTVSS
VL: DIVMTQSPDSLAVSLGERATINCRSSQTIILSNGNTYLEWYQQKPGQPPKLLIYKVSNRFSGVPDRFSGSGSGTDFTLTISSLQAEDVAVYYCFQGSHVPFTFGSGTKLEIKR
In the case of B8, the EC50 in assay [1] is 8.44 nM. The Relative binding activity in assay [2] came to 0.47.

B9: hGPN18-2_H2L3 VH S64A (antibody, V domains shown)
VH: QVQLVQSGPGLVQPTQTLTLTCSFSGFSLSTSVMGVGWIRQPSGKGLEWLADIWWDDDKDYNPALKSRLTISKDTSKNQVVLTMTNMDTVDTATYYCARTYYSNYEYYGMDYWGQGTLVTVSS
VL: DIVMTQSPDSLAVSLGERATINCRSSQTIILSNGNTYLEWYQQKPGQPPKLLIYKVSNRFSGVPDRFSGSGSGTDFTLTISSLQAEDVAVYYCFQGSHVPFTFGSGTKLEIKR
With B9, the EC50 in assay [1] was determined as 3.59 nM. Also, the Relative binding activity in assay [2] amounted to 1.09.

B10: hGPN18-2_H2L3 VH N62A (antibody, V domains shown)
VH: QVQLVQSGPGLVQPTQTLTLTCSFSGFSLSTSVMGVGWIRQPSGKGLEWLADIWWDDDKDYAPSLKSRLTISKDTSKNQVVLTMTNMDTVDTATYYCARTYYSNYEYYGMDYWGQGTLVTVSS
VL: DIVMTQSPDSLAVSLGERATINCRSSQTIILSNGNTYLEWYQQKPGQPPKLLIYKVSNRFSGVPDRFSGSGSGTDFTLTISSLQAEDVAVYYCFQGSHVPFTFGSGTKLEIKR
Consider B10, for which the EC50 in assay [1] stood at 4.58 nM. The Relative binding activity in assay [2] amounted to 0.97.

B11: hGPN18-2_H2L3 VH Y102A (antibody, V domains shown)
VH: QVQLVQSGPGLVQPTQTLTLTCSFSGFSLSTSVMGVGWIRQPSGKGLEWLADIWWDDDKDYNPSLKSRLTISKDTSKNQVVLTMTNMDTVDTATYYCARTYASNYEYYGMDYWGQGTLVTVSS
VL: DIVMTQSPDSLAVSLGERATINCRSSQTIILSNGNTYLEWYQQKPGQPPKLLIYKVSNRFSGVPDRFSGSGSGTDFTLTISSLQAEDVAVYYCFQGSHVPFTFGSGTKLEIKR
Take B11: the EC50 in assay [1] is 49.1 nM. Besides, in assay [2], the Relative binding activity was 0.07.

B12: hGPN18-2_H2L3 VH Y101A (antibody, V domains shown)
VH: QVQLVQSGPGLVQPTQTLTLTCSFSGFSLSTSVMGVGWIRQPSGKGLEWLADIWWDDDKDYNPSLKSRLTISKDTSKNQVVLTMTNMDTVDTATYYCARTAYSNYEYYGMDYWGQGTLVTVSS
VL: DIVMTQSPDSLAVSLGERATINCRSSQTIILSNGNTYLEWYQQKPGQPPKLLIYKVSNRFSGVPDRFSGSGSGTDFTLTISSLQAEDVAVYYCFQGSHVPFTFGSGTKLEIKR
For the molecule B12, the EC50 in assay [1] is 7.68 nM. The Relative binding activity in assay [2] was found to be 0.61.

B13: hGPN18-2_H2L3 VH M110A (antibody, V domains shown)
VH: QVQLVQSGPGLVQPTQTLTLTCSFSGFSLSTSVMGVGWIRQPSGKGLEWLADIWWDDDKDYNPSLKSRLTISKDTSKNQVVLTMTNMDTVDTATYYCARTYYSNYEYYGADYWGQGTLVTVSS
VL: DIVMTQSPDSLAVSLGERATINCRSSQTIILSNGNTYLEWYQQKPGQPPKLLIYKVSNRFSGVPDRFSGSGSGTDFTLTISSLQAEDVAVYYCFQGSHVPFTFGSGTKLEIKR
As for B13, the EC50 in assay [1] turned out to be 23.4 nM. Moreover, the Relative binding activity in assay [2] came out at 0.41.

B14: hGPN18-2_H2L3 VH L65A (antibody, V domains shown)
VH: QVQLVQSGPGLVQPTQTLTLTCSFSGFSLSTSVMGVGWIRQPSGKGLEWLADIWWDDDKDYNPSAKSRLTISKDTSKNQVVLTMTNMDTVDTATYYCARTYYSNYEYYGMDYWGQGTLVTVSS
VL: DIVMTQSPDSLAVSLGERATINCRSSQTIILSNGNTYLEWYQQKPGQPPKLLIYKVSNRFSGVPDRFSGSGSGTDFTLTISSLQAEDVAVYYCFQGSHVPFTFGSGTKLEIKR
Regarding B14, the EC50 in assay [1] was 5.04 nM. In assay [2], the Relative binding activity was 0.94.
